The supplement of paper PMC10065799, “High-throughput profiling of sequence recognition by tyrosine kinases and SH2 domains using bacterial peptide display” (eLife, 2023)

How the values were obtained:
c-Src SH2 = test: SH2 binding enrichment of the phosphorylated peptide, bacterial display (enrichment ratio); higher = better substrate or ligand; peptides without Tyr show the background
Grb2 SH2 = Grb2 SH2 (UniProt P62993); test: as above
SHP2-C SH2 = test: as above
Fyn = Fyn (UniProt P06241); test: phosphorylation enrichment, bacterial display (enrichment ratio); higher = better substrate or ligand; peptides without Tyr show the background
MERTK = MERTK (UniProt Q12866); test: as above
EPHB2 = EPHB2 (UniProt P29323); test: as above
Hck = Hck (UniProt P08631); test: as above
Jak2 = Jak2 (UniProt O60674); test: as above
c-Src = test: as above
c-Abl (mouse) = test: as above
AncSZ = test: as above
Fer (mouse) = test: as above
Fes = Fes (UniProt P07332); test: as above
FGFR3 = FGFR3 (UniProt P22607); test: as above
FGFR1 = FGFR1 (UniProt P11362); test: as above
EPHB1 = EPHB1 (UniProt P54762); test: as above
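Throughout, for SH2 binding enrichment of the phosphorylated peptide, bacterial display: peptide library displayed on the E. coli surface as eCPX fusions, selected cells deep-sequenced, score is each peptide's frequency after selection divided by its frequency in the input.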
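Throughout, for phosphorylation enrichment, bacterial display: 11-residue human phosphosite peptides and single-mutation variants displayed on the E. coli surface, counted by deep sequencing, each peptide's frequency after selection divided by its frequency in the unselected input library; frequency after pTyr selection over input frequency; kinase dosed for 20-30% of maximal phosphorylation in three min.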

Sequence of FGFR1 (P11362 whole entry, looked up): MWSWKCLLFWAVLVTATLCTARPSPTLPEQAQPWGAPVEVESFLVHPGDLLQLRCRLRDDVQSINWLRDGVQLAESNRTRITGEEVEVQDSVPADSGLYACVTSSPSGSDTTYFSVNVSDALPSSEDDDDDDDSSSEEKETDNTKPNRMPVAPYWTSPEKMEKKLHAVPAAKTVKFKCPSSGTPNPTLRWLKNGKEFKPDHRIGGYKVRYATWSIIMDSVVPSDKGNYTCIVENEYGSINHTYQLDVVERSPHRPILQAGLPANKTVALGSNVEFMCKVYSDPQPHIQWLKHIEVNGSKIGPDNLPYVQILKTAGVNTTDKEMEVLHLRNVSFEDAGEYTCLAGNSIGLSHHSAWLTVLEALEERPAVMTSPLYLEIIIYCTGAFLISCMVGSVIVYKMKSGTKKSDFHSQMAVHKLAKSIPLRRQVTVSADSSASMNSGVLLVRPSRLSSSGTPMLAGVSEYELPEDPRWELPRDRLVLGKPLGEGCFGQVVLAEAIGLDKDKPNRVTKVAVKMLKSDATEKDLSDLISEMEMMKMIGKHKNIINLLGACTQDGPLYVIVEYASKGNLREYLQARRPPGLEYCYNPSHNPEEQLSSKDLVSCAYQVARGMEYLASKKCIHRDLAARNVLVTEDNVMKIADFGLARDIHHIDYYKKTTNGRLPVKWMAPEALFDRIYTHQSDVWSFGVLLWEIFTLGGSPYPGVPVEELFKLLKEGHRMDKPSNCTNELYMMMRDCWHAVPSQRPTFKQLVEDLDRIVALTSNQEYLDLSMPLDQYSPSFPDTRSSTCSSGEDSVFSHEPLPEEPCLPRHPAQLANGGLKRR
Sequence of Grb2 SH2 (P62993 whole entry, looked up): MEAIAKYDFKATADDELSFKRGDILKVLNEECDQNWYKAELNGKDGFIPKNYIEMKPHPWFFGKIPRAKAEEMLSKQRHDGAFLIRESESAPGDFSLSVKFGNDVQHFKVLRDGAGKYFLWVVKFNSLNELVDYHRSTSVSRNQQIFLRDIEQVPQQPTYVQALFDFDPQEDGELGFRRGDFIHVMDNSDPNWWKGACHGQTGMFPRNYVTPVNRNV
Sequence of Fyn (P06241 whole entry, looked up): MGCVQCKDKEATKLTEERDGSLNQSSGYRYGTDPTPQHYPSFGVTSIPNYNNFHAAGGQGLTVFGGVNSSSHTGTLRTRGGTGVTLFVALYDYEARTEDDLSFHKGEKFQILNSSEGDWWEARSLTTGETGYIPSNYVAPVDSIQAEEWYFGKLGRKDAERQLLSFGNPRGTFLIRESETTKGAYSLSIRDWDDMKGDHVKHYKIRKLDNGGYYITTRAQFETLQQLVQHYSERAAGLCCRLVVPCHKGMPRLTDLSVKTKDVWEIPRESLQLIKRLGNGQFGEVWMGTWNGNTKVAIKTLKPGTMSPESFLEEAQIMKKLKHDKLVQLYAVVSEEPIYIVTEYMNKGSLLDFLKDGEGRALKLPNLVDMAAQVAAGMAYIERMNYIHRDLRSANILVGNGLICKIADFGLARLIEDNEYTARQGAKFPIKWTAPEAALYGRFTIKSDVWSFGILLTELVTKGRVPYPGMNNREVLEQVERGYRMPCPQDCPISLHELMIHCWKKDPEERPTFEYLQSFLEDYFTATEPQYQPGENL
Sequence of EPHB2 (P29323 whole entry, looked up): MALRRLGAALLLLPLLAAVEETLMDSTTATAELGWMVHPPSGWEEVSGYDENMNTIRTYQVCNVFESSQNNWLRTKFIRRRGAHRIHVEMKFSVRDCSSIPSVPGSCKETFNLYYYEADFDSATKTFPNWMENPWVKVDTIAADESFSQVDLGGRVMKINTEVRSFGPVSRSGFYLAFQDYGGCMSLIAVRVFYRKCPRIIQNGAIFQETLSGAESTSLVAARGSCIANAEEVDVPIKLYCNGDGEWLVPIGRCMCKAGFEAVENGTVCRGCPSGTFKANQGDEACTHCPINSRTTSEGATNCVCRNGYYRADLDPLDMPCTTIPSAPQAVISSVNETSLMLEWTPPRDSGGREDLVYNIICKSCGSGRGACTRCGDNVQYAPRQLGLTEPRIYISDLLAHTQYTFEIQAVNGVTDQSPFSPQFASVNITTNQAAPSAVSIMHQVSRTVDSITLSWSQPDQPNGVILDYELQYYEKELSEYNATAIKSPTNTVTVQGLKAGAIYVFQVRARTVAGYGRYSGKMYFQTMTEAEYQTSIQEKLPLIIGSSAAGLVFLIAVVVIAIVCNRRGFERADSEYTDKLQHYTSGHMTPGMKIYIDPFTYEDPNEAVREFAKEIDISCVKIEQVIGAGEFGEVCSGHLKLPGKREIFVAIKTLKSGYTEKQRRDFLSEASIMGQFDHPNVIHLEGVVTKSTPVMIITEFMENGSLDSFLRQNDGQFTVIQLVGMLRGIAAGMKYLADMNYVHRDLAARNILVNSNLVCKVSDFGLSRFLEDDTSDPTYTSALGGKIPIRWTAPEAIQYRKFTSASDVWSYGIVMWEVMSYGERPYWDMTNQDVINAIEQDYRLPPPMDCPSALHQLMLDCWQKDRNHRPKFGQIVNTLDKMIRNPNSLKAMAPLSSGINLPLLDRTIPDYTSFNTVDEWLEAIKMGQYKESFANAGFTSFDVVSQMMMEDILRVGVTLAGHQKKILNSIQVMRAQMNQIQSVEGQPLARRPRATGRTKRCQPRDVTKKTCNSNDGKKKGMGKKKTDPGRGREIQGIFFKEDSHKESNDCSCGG
Sequence of Hck (P08631 whole entry, looked up): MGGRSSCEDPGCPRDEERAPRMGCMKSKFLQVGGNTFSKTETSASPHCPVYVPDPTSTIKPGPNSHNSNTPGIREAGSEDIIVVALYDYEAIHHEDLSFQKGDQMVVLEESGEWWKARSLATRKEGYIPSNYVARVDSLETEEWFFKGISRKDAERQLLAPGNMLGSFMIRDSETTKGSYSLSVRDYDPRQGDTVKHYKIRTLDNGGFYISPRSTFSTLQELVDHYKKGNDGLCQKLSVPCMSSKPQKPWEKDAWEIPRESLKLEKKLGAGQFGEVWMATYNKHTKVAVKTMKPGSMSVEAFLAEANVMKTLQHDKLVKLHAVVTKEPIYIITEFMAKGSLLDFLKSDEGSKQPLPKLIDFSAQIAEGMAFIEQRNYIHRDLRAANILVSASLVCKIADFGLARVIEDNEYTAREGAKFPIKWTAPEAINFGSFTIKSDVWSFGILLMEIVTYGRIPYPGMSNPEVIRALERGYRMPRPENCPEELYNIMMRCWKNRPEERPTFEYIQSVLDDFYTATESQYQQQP
Sequence of MERTK (Q12866 whole entry, looked up): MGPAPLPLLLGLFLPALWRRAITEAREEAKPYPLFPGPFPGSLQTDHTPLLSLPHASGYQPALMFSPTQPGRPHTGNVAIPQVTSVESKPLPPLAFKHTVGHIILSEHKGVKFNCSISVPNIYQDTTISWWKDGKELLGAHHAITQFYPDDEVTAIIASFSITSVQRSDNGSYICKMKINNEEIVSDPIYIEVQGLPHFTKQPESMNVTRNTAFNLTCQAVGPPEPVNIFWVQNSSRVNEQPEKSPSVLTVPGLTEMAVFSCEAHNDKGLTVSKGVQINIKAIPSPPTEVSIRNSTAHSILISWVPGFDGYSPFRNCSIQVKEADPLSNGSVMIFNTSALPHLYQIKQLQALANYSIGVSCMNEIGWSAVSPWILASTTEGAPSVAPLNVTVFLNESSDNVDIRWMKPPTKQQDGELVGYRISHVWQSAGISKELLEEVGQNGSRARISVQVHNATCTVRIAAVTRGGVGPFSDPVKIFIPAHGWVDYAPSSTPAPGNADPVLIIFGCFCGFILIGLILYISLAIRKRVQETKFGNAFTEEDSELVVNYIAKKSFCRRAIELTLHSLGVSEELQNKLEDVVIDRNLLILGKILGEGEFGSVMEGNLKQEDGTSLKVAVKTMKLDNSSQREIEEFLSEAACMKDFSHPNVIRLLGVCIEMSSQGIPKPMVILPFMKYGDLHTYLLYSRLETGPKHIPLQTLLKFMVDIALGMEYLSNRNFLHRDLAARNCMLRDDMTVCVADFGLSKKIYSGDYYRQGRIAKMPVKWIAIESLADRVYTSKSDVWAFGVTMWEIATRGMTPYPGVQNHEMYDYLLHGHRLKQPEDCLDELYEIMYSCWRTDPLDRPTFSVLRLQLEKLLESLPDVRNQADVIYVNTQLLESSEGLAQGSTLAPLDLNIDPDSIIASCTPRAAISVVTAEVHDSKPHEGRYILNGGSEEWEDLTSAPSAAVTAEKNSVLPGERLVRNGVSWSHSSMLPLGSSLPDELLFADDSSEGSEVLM
Sequence of Fes (P07332 whole entry, looked up): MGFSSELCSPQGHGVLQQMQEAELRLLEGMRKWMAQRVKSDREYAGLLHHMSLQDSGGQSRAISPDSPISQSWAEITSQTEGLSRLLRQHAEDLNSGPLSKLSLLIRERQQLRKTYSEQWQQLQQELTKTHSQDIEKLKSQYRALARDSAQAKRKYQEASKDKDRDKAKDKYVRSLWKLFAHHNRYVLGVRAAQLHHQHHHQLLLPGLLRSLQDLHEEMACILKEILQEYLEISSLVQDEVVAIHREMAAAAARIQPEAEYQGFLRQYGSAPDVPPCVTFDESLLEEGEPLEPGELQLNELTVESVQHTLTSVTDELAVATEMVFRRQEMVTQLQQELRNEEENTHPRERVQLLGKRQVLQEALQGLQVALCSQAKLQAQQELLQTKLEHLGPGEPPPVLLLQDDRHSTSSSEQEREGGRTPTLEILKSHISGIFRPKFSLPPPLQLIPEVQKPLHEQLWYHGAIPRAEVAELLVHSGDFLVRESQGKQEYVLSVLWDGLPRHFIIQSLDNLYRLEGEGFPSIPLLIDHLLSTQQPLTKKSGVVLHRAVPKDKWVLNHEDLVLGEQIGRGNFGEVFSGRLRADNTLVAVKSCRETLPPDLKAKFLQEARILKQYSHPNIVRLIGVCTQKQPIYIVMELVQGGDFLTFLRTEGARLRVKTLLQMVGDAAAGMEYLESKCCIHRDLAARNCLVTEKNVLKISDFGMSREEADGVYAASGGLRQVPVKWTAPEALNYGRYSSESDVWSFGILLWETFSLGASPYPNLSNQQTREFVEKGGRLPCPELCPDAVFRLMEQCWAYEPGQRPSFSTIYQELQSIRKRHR

Sequence	SH2 binding enrichment (c-Src SH2)	SH2 binding enrichment (Grb2 SH2)	SH2 binding enrichment (SHP2-C SH2)	phosphorylation enrichment (Fyn)	phosphorylation enrichment (MERTK)	phosphorylation enrichment (EPHB2)	phosphorylation enrichment (Hck)	phosphorylation enrichment (Jak2)	phosphorylation enrichment (c-Src)	phosphorylation enrichment (c-Abl (mouse))	phosphorylation enrichment (AncSZ)	phosphorylation enrichment (Fer (mouse))	phosphorylation enrichment (Fes)	phosphorylation enrichment (FGFR3)	phosphorylation enrichment (FGFR1)	phosphorylation enrichment (EPHB1)
QLCVSYPGGYT [PROS1_Y259_N258S]	0.541	0.861	0.784	0.597	0.402	0.719	0.416	0.862	0.4	0.683	1.03	0.591	0.888	0.665	0.592	0.588
NTYEKYLGEEY [TF_Y669]	2.41	0.971	0.722	0.974	0.382	0.74	0.688	0.99	1.03	0.935	1.12	0.523	1.06	0.756	0.472	0.601
ETESPYQELQG [TYROBP_Y91]	0.61	0.635	0.543	0.775	0.669	0.646	0.9	1.3	1.52	0.83	1.24	0.673	1.39	0.834	0.91	0.624
KSIQLYDTPFE [SHB_Y297_G293S_YF]	2.03	0.766	0.802	1.01	6.02	18	2.17	0.9	0.784	1.29	1.18	3.47	1	0.683	0.518	12.7
STAPSYGNPSS [CD19_Y378_G373S]	0.458	0.744	0.694	0.383	0.402	0.357	0.34	0.503	0.381	0.482	0.545	0.32	0.505	0.358	0.361	0.328
KTTILHKLKLG [ARF1_Y35_Y35H]	1.46	1.5	1.24	0.333	0.35	0.509	0.39	0.548	0.326	0.591	0.584	0.435	0.739	0.518	0.439	0.4
NQELIYEGRRL [TBK1_Y354]	0.522	0.735	0.612	8.61	0.581	0.668	9.83	0.581	7.87	5	0.755	8.54	0.763	0.808	0.472	0.518
HQEPVCSVAFS [TBL1X_Y509_Y509C]	0.646	1.12	0.591	0.658	0.791	0.654	0.69	1.17	0.794	1.09	1.07	0.874	2.01	1.1	1.12	0.804
YEDTLYTVLHR [UNC13D_Y61_A59T]	2.26	0.761	0.525	7.58	8.84	9.31	8.16	1.39	6.38	3.32	2.9	9.1	1.41	2.09	2.08	12.2
AAVDNYCRHNF [HLA-DRB1_Y107_T106N_YF]	0.583	0.877	0.772	0.587	0.326	0.234	0.203	0.928	0.349	0.484	0.41	0.471	0.53	1.33	0.442	0.753
AQADIYKADFQ [IKBKG_Y308]	0.421	0.836	0.647	0.734	0.399	0.535	0.78	0.672	0.925	0.675	0.856	0.354	0.848	0.722	0.44	0.465
RLLVVYPWTQR [HBB_Y36]	1.41	1.99	2.05	0.574	0.523	0.632	0.497	0.967	0.53	0.77	1.09	0.5	1.06	0.722	0.591	0.553
VKMLPYTEVTR [GDI1_Y93_L92P]	2.9	0.988	0.863	0.368	0.494	0.431	0.45	0.573	0.4	0.492	0.555	0.282	0.717	0.49	0.416	0.437
PPLMLYNPTTY [EGFR_Y270]	0.74	1.45	1.28	0.633	0.472	0.718	1.01	0.625	0.645	0.541	0.518	0.613	10.3	0.498	0.43	1
HTLIKYTDGDQ [PUS7L_Y94]	0.464	0.914	0.606	1.89	1.16	0.982	1.01	1.75	1.09	1.35	1.41	0.64	1.76	1.14	1.33	0.819
VLRQVYVDFEG [KMT2B_Y1707_R1705Q]	0.938	0.833	1	1.85	0.465	0.722	0.86	0.993	1.42	0.692	1.16	0.579	1.28	0.871	0.721	0.877
SPPILYSFYLD [FCRL6_Y239]	0.882	1.28	1.14	2.03	8.22	4.22	1.57	0.775	2.74	0.736	1.31	1.37	1.05	0.924	1.42	3.28
